Entries after “also recorded” stand apart in the source; their conditions may differ.
What was measured:
[1] = target: amyloid β peptide1-42 in guinea pig plasma, Q60495
[2] = target: amyloid β peptide1-40 in guinea pig plasma, Q60495
[3] = target: Amyloid β1-40 peptide (Bachem)

B1: Recombinant human Neprilysin (R&D Systems) (protein)
chain: YDDGICKSSDCIKSAARLIQNMDATTEPCTDFFKYACGGWLKRNVIPETSSRYGNFDILRDELEVVLKDVLQEPKTEDIVAVQKAKALYRSCINESAIDSRGGEPLLKLLPDIYGWPVATENWEQKYGASWTAEKAIAQLNSKYGKKVLINLFVGTDDKNSVNHVIHIDQPRLGLPSRDYYECTGIYKEACTAYVDFMISVARLIRQEERLPIDENQLALEMNKVMELEKEIANATAKPEDRNDPMLLYNKMTLAQIQNNFSLEINGKPFSWLNFTNEIMSTVNISITNEEDVVVYAPEYLTKLKPILTKYSARDLQNLMSWRFIMDLVSSLSRTYKESRNAFRKALYGTTSETATWRRCANYVNGNMENAVGRLYVEAAFAGESKHVVEDLIAQIREVFIQTLDDLTWMDAETKKRAEEKALAIKERIGYPDDIVSNDNKLNNEYLELNYKEDEYFENIIQNLKFSQSKQLKKLREKVDKDEWISGAAVVNAFYSSGRNQIVFPAGILQPPFFSAQQSNSLNYGGIGMVIGHEITHGFDDNGRNFNKDGDLVDWWTQQSASNFKEQSQCMVYQYGNFSWDLAGGQHLNGINTLGENIADNGGLGQAYRAYQNYIKKNGEEKLLPGLDLNHKQLFFLNFAQVWCGTYRPEYAVNSIKTDVHSPGNFRIIGTLQNSAEFSEAFHCRKNSYMNPEKKCRVW
- degradation of Aβ1-42 in guinea pig plasma (ELISA) [1]: Neprilysin degrades Aβ1-40 and Aβ1-42 in a time-dependent manner
- degradation of Aβ1-40 in guinea pig plasma (ELISA) [2]: Neprilysin degrades Aβ1-40 and Aβ1-42 in a time-dependent manner; also recorded: Neprilysin degrades Aβ1-40 in a dose dependent manner
- Amyloid β1-40 peptide degradation (percentage of peptide left, electrochemiluminescence immunoassay) [3]: degraded 88% of Amyloid β1-40 peptide (1 nM) after 3 hours incubation at 37 °C
